Legend:
Gramicidin A [1] = experiment: single-channel recording in planar lipid bilayers; gA added to both compartments of a painted DOPC bilayer; conductive channel = gA dimer; 10 mmol/L HEPES, 1 mol/L KCl, pH 7.4, 23 ± 2 °C, -100 mV; without and with AEA (up to 3 umol/L) or 3 umol/L 2-AG
Gramicidin A [2] = experiment: single-channel recording in planar lipid bilayers; gA added to both compartments of a painted DPhPC bilayer; conductive channel = gA dimer; 10 mmol/L HEPES, 1 mol/L KCl, pH 7.4, 23 ± 2 °C, -100 mV; without and with AEA

- fold increase of channel appearance frequency f (f/f control = k1/k1,control) with 3 umol/L AEA over no AEA (Gramicidin A [1]): 7.2 fold
- fold increase of open channel lifetime tau (tau control/tau = k-1/k-1,control) with 3 umol/L AEA over no AEA (Gramicidin A [1]): 1.8 fold
- fold increase of channel appearance frequency f (f/f control = k1/k1,control) with 3 umol/L AEA over no AEA (Gramicidin A [2]): 4 fold
- fold increase of open channel lifetime tau (tau control/tau = k-1/k-1,control) with 3 umol/L AEA over no AEA (Gramicidin A [2]): 1.4 fold
Substance: Gramicidin A (peptide)

Source: PMC5269673
